Target: amyloid beta-protein 40 (Aβ40) (human) (UniProt P05067)

## plasminogen isolated and purified from plasma of a human donator (enzyme)
  Aβ40 content by Tricine-SDS-PAGE with quantitative scanning (solvent control defined as 100%): 74.8%

Reference: patent publication US20230173039A1
